# Reference: US8076297B2, “Pharmaceutical composition containing polypeptide fragments of serralysins” (Centro De Ingenieria Genetica Y Biotecnologia, priority 2004, dated 2011)
# “Also recorded” adds a separate entry of the source. Read-outs that look alike come from different tables or passages of the source.
# B1: p25: 25 kDa non-proteolytic C-terminal fragment of serralysin PRZN_SERMA/PRZN_SERSP, degradation product of p50 (protein)
# chain: SYWSETNTGGDNGGHYAAAPLLDDIAAIQHLYGANPSTRTGDTVYGFNSNTGRDFLSTTSNSQKVIFAAWDAGGNDTFDFSGYTANQRINLNEKSFSDVGGLKGNVSIAAGVTIENAIGGSGNDVIVGNAANNVLKGGAGNDVLFGGGGADELWGGAGKDIFVFSAASDSAPGASDWIRDFQKGIDKIDLSFFNKEANSSDFIHFVDHFSGTAGEALLSYNASSNVTDLSVNIGGHQAPDFLVKIVGQVDVATDFIV
# Legend:
# P3X63Ag8 mieloide tumor = experiment: Regression of implanted P3X63Ag8 myeloid tumor; assay type: in vivo, BALB/c mice
# Protocol: The p25 was them injected i.p. to mice BALB/c after of 8 days of implanted P3X63Ag8 mieloide tumor and perfectly development. The doses of 22 μg/kg of weigh of p25 induced total regression in the 80% of the animals treatment. the negative controls death in the end of 30 days, where already had development compact tumors.
# HEp-2 cells = experiment: Anti-proliferative assay on HEp-2 cells, MTT method; assay type: cell-based, human
# Protocol: For the characterization of the antiproliferative activity of MG2327 “in vitro” a panel of human cell lines was evaluated (table 1). A total of 2000 cells, except for PBMC (20000), were seeded in 96 wells culture wells, and different concentrations of MG2327 were added. After 72 hours, the number of survival cells was estimated by addition of MTT (Skehan, P., Storeng, R., Scudiero, D., Monks, A., Mcmahon, J., Vistica, D., Warren, J. T., Bokesch, H., Kenney, S. and BOYD, M. R. 1990. J Natl Cancer Inst. 82:1107). The soluble formazan products were detected at 540 nm in a multiscan plate reader.
# [1] = tested on: murine mieloma P3X63Ag8 cells; experiment: Apoptosis: DNA laddering and electron microscopy; assay type: cell-based
# Protocol: For determining the kind of tumoral cell death, murine mieloma P3X63Ag8 cells (2*10^7) were treated in vitro with MG2327 at 22 μg/mL. Treated and untreated cells were prepared for ultrastructural transmission electron microscopy studies at different times, and genomic DNA was extracted for DNA laddering assay.
# DNA fragmentation was assessed by 2% agarose gel electrophoresis. Apoptosis frequently involves cellular DNA laddering of 180-200 bp, representative of inter-nucleosomal distances (Soldatenkov, V. A., Prasad, S., Voloshin, Y., and Dritschilo, A. 1998. Cell Death Differ. 5:307-12).
# casein = experiment: Proteolytic activity, modified Anson and Mirsky method; assay type: biochemical
# Source text: The modify method of Anson y Mirsky (Anson, M. L., Mirsky, A. E. 1932. J. Gen. Physiol. 16: 59) using casein as sustrate, was adjust in our laboratory with Tripsina (y=1.9314x-0.682; R^2=0.999). The proteic fraccions obtained in the chromatography describe in the Example 6 were assay with this method.
# gelatine = experiment: Proteolytic activity, zymogram method; assay type: biochemical
# Source text: The method of the cimogeno using gelatine as sustrate (Vacca, A., Iurlaro, M., Ribatti, D., Minischetti, M., Nico, B., Ria, R., Pellegrino, A. and Dammacco, F. 1999. Blood. 94:4143-4155) was employed to verify the proteolytic activity of p50 and p25. Moreover was analized the enzymatic capacity of the degradation of p50.
# [2] = tested on: human microvasculature endothelial cells (HMEC); experiment: Formation of tubular structures in matrigel; assay type: cell-based; settings: non-cytotoxic concentrations; activation with 10 ng/mL EGF, 1 μg/mL hydrocortisone
# Source text: Anti-angiogenic effect of MG2327 and anti-proliferative polypeptides fragments were evaluate by the method of formation of tubular structure in matrigel. Non citotoxic concentration of MG2327 and their fraction p25 y p50 were incubed with human microvasculature endothelial celulas (HMEC). The final result it evalued considering the tubular structure length formed and the number of interconexión between them. For this used Pro Express 4.5 Image-program.
# Human micro-vasculature-derived human endotelial cells (HMEC) were assessed for endothelial cord formation on matrigel (Crum R, Szabo S, Folkman J. 1985. Science. 230:1375-8; Vacca, A., Ribatti, D., Presta, M., Minischettti, M., lurlaro, M, Ria, R, Albini, A, Bussolino, F. and Dammaacco, F. 1999. Blood 93:3064) after culture under non-cytotoxic MG2327 and p25 and p50 concentrations (Sanz, L., Pascual, M., Muñoz, A., González, M. A., Salvador C H, Álvarez-Vallina L. 2002. Microvascular Research 63:335-339). Results considered the length of tubular structures and the number of interconnections between them, as calculated by using the Image-Pro Express 4.5 package.
molecule,measurement,setting,value
B1,animals with total regression,"P3X63Ag8 mieloide tumor; 22 μg/kg i.p., 8 days after tumor implant",80%
same,tumor regression,"P3X63Ag8 mieloide tumor; mouse, in vivo",induce total regression
same,inhibition of the growing of the tumor cells,HEp-2 cells; 18 μg/mL,100%
same,activity of 25 kDa fraction compared with 50 kDa fraction,HEp-2 cells; 9 and 18 μg/mL,most active
same,activity of 25 kDa component compared with MG2327,"HEp-2 cells; doses of 2.5, 4.5 and 9 μg/mL",showed major biologic activity
same,IC50,"HEp-2 cells; fractions recovered from SDS gels and renaturalized, p50 with Zn4SO2 5 μM added, read-out: IC50 (FIG. 2)",0.35 nM
same,IC50,"HEp-2 cells; fractions recovered from SDS gels, p50 incubated with 5 μM Zn2SO4, read-out: IC50 of the fractions p25 and p50",0.48 nM
same,antiproliferative activity,"HEp-2 cells; gel-recovered fractions, no zinc added (incubated with EDTA)",dosis-dependiente potent anti-proliferative activity; also recorded: strong antiproliferative dose dependent activity
same,anti-proliferative effect,HEp-2 cells; proteins purified by DEAE chromatography,showed anti-proliferative effect on HEp.2
same,ultrastructural changes (electron microscopy),[1],"chromatin condensing, damaged mitrocondria cristae and clustered mitocondria were detected"
same,proteolytic (enzymatic) activity,casein,no showed enzymatic activity; also recorded: non present enzymatic activity; also recorded: do not present activity
same,proteolytic activity,gelatine,no showed this activity
same,differentiation of endothelial cells / tubular net formation,[2],significant inhibition; also recorded: index of net formation inferior to that observed for MG2327 and p50
